Columns and labels:
HLA-A*02:02 = assay: IEDB peptide-MHC binding, purified MHC/competitive/radioactivity; filed as Kd, often an IC50 or EC50 that approximates it; ≥ and ≤ were set here for values at or beyond the usual limits of such assays
HLA-A*02:06 = assay: as above
HLA-A*02:03 = assay: as above
HLA-A*02:01 = assay: IEDB peptide-MHC binding, purified MHC/direct/fluorescence; filed as Kd, often an IC50 or EC50 that approximates it; ≥ and ≤ were set here for values at or beyond the usual limits of such assays; conditions: source organism: Mycobacterium tuberculosis
HLA-A*01:01 = assay: IEDB peptide-MHC binding, purified MHC/competitive/radioactivity; filed as Kd, often an IC50 or EC50 that approximates it; ≥ and ≤ were set here for values at or beyond the usual limits of such assays
[1] = source organism: Vaccinia virus WR
[2] = source organism: Dengue virus 4 Philippines/H241/1956
[3] = source organism: Dengue virus 3 Martinique/1243/1999
[4] = source organism: SARS coronavirus Tor2
[5] = source organism: Dengue virus 1 Brazil/97-11/1997

Row | Sequence | Kd (HLA-A*02:02; [1]) | Kd (HLA-A*02:06; [1]) | Kd (HLA-A*02:03; [1]) | other results
1 | AAVTLNRIKI | 0.83 µM | 1.92 µM | 3.49 µM | –
2 | AMLAGTAVV | – | – | – | Kd (HLA-A*02:01): 0.0059 µM
3 | AVTLNRIKIA | 1.72 µM | 2.29 µM | 1.29 µM | –
4 | CTINVNSLA | 1.04 µM | 0.248 µM | 1.61 µM | –
5 | DLNSFEQLCI | – | – | – | Kd (HLA-A*02:06; source organism: Homo sapiens): ≥ 128 µM
6 | DMLLNVQTL | 7.4 µM | 13.4 µM | 5.07 µM | –
7 | DVLPFDIKYI | 1.2 µM | 1.11 µM | 0.188 µM | –
8 | DVNEEYTEAA | ≥ 46.3 µM | ≥ 59.2 µM | ≥ 28.8 µM | –
9 | ETDDDGNYPL | 3.59 µM | 1.16 µM | ≥ 28.2 µM | –
10 | ETNIGCAVNT | ≥ 70 µM | ≥ 69.8 µM | ≥ 37 µM | –
11 | ETVKMGAFM | 15 µM | ≥ 40.4 µM | 7.43 µM | –
12 | FIDRGSIKI | 9.72 µM | 4.03 µM | 12.2 µM | –
13 | FLPQIGGEA | 0.0211 µM | 0.0958 µM | 0.121 µM | –
14 | GIDTSNNIA | ≥ 49.7 µM | ≥ 25.2 µM | ≥ 71.4 µM | –
15 | GIRCVSNLDI | ≥ 20.1 µM | ≥ 32.9 µM | 3.87 µM | –
16 | GLDPTGVAV | – | – | – | Kd (HLA-A*02:01): 0.0174 µM
17 | GLESIEQNLT | 7.02 µM | ≥ 69.8 µM | ≥ 61.3 µM | –
18 | GLVSLLGSA | – | – | – | Kd (HLA-A*02:03; [2]): 0.00412 µM
19 | GQIHLAIMAV | – | – | – | Kd (HLA-A*02:06; [2]): 0.00133 µM
20 | HILHAYCGI | 0.123 µM | 0.359 µM | 0.0665 µM | –
21 | HINDQKFDDV | 5.86 µM | 1.19 µM | 1.16 µM | –
22 | IIAVFDSKLI | 0.758 µM | 8.51 µM | 0.595 µM | –
23 | IISTDQDTML | 0.451 µM | 0.666 µM | 1.81 µM | –
24 | ITDYQGKTV | – | – | – | Kd (HLA-A*01:01; [2]): ≥ 33.9 µM
25 | ITGNKVKTEL | ≥ 70 µM | ≥ 69.8 µM | ≥ 70.4 µM | –
26 | IVAMLLTHGA | 1.16 µM | 0.0822 µM | 0.153 µM | –
27 | IVSRSSRGV | 0.264 µM | 0.476 µM | 13.2 µM | –
28 | KIDKLTFQI | 0.141 µM | 0.0419 µM | 10.6 µM | –

Row | Sequence | Kd (HLA-A*02:02; [1]) | Kd (HLA-A*02:06; [1]) | Kd (HLA-A*02:03; [1]) | other results
29 | KVEKYLPEVI | 12.1 µM | 0.734 µM | 12.4 µM | –
30 | KVIGLYGNGV | – | – | – | Kd (HLA-A*02:06; [2]): 0.0123 µM
31 | LIGKEEYVDY | – | – | – | Kd (HLA-A*01:01; [2]): 7.91 µM
32 | LIGNEEFLDY | – | – | – | Kd (HLA-A*01:01; [3]): 1.67 µM
33 | LIYYQNEVT | 14 µM | 8.51 µM | 5.21 µM | –
34 | LLFLVLIMLI | – | – | – | Kd (HLA-A*02:02; [4]): 0.447 µM; Kd (HLA-A*02:06; [4]): 8.3 µM; Kd (HLA-A*02:03; [4]): 3.15 µM
35 | LLFMILTVAA | – | – | – | Kd (HLA-A*02:03; [5]): 0.468 µM
36 | LLMLVTPSMA | – | – | – | Kd (HLA-A*02:03; [5]): 0.0236 µM
37 | LLNETAKVI | 0.319 µM | 15.4 µM | 0.0714 µM | –
38 | LTSRETALM | – | – | – | Kd (HLA-A*01:01; [2]): 1.8 µM
39 | MAEFEDQLV | 0.165 µM | 5.51 µM | 0.641 µM | –
40 | MLHNPTSET | 4.21 µM | ≥ 77.1 µM | 0.184 µM | –
41 | NIVASVNMV | – | – | – | Kd (HLA-A*02:03; [3]): 0.0829 µM
42 | NIVTFINDYA | 0.0618 µM | 0.351 µM | 0.245 µM | –
43 | NLTSTWVMY | – | – | – | Kd (HLA-A*01:01; source organism: Dengue virus 4 Dominica/814669/1981): 1.99 µM
44 | NMWREILSNT | 6.06 µM | 12 µM | 0.0561 µM | –
45 | NTLIQYRQQL | 6.37 µM | ≥ 20.9 µM | 10.1 µM | –
46 | NVKSKLLWFL | 2.29 µM | ≥ 31 µM | 0.633 µM | –
47 | PASKKESVI | 1.35 µM | 10.3 µM | 1.76 µM | –
48 | PTWLGAAITL | 1.36 µM | 1.77 µM | 1.01 µM | –
49 | QIYLSDSDNI | 1.24 µM | 14.9 µM | 19.6 µM | –
50 | QMAGVEVRYI | 0.000208 µM | 0.0448 µM | 0.000138 µM | –
51 | QQFANVISKI | 0.0515 µM | 0.863 µM | 0.0017 µM | –
52 | QTGIQRTVFF | – | – | – | Kd (HLA-A*01:01; [2]): ≥ 70.4 µM
53 | RAGYSIVEL | 4.94 µM | 5.07 µM | 5.39 µM | –
54 | RLRQDTEDI | 0.23 µM | 4.58 µM | 0.387 µM | –
55 | RQDYRRSINV | 1.01 µM | 2.22 µM | 0.375 µM | –
